Tests used:
Assay in all cases: cell-based or functional assay
[1] = molecular target: HIV-1 6535.3 (Acute) Env on pseudovirus (HIV-1)
[2] = molecular target: HIV-1 92BR020 Env on pseudovirus (HIV-1)
[3] = molecular target: HIV-1 92RW020 Env (HIV-1)
[4] = molecular target: HIV-1 92UG001 Env (HIV-1)
[5] = molecular target: HIV-1 92UG005 Env (HIV-1)
[6] = molecular target: HIV-1 92UG046 Env (HIV-1)
[7] = molecular target: HIV-1 93TH305 Env on pseudovirus (HIV-1)
HIV-1 APV-13 Env (HIV-1) = molecular target: HIV-1 APV-13 Env (HIV-1)
HIV-1 APV-6 Env (HIV-1) = molecular target: HIV-1 APV-6 Env (HIV-1)
[8] = molecular target: HIV-1 IAVI-C3 Env (HIV-1)
[9] = molecular target: HIV-1 JRFL Env on pseudovirus (HIV-1)
[10] = molecular target: HIV-1 MGRM-AE-002 Env (HIV-1)
[11] = molecular target: HIV-1 MGRM-AE-006 Env (HIV-1)
[12] = molecular target: HIV-1 MGRM-AG-001 Env (HIV-1)
[13] = molecular target: HIV-1 MGRM-AG-005 Env (HIV-1)
[14] = molecular target: HIV-1 MGRM-AG-009 Env (HIV-1)
[15] = molecular target: HIV-1 MGRM-AG-013 Env (HIV-1)
[16] = molecular target: HIV-1 MGRM-C-001 Env on pseudovirus (HIV-1)
[17] = molecular target: HIV-1 MGRM-C-005 Env on pseudovirus (HIV-1)
[18] = molecular target: HIV-1 MGRM-C-006 Env on pseudovirus (HIV-1)
[19] = molecular target: HIV-1 MGRM-C-008 Env on pseudovirus (HIV-1)
[20] = molecular target: HIV-1 MGRM-C-012 Env on pseudovirus (HIV-1)
[21] = molecular target: HIV-1 MGRM-C-014 Env on pseudovirus (HIV-1)
[22] = molecular target: HIV-1 MGRM-C-015 Env on pseudovirus (HIV-1)
[23] = molecular target: HIV-1 MGRM-C-017 Env on pseudovirus (HIV-1)
[24] = molecular target: HIV-1 MGRM-C-019 Env on pseudovirus (HIV-1)
[25] = molecular target: HIV-1 MGRM-C-020 Env on pseudovirus (HIV-1)
[26] = molecular target: HIV-1 MGRM-C-023 Env on pseudovirus (HIV-1)
[27] = molecular target: HIV-1 MGRM-D-002 Env (HIV-1)
[28] = molecular target: HIV-1 MGRM-D-004 Env (HIV-1)
[29] = molecular target: HIV-1 MGRM-D-008 Env (HIV-1)
[30] = molecular target: HIV-1 MGRM-D-011 Env (HIV-1)
[31] = molecular target: HIV-1 MGRM-D-019 Env (HIV-1)
[32] = molecular target: HIV-1 MGRM-D-020 Env (HIV-1)
[33] = molecular target: HIV-1 MGRM-D-021 Env (HIV-1)
[34] = molecular target: HIV-1 MGRM-D-022 Env (HIV-1)
[35] = molecular target: HIV-1 MGRM-D-028 Env (HIV-1)
[36] = molecular target: HIV-1 MGRM-F1-004 Env (HIV-1)
[37] = molecular target: HIV-1 MGRM-F1-006 Env (HIV-1)
[38] = molecular target: HIV-1 MGRM-F1-010 Env (HIV-1)
[39] = molecular target: HIV-1 MGRM-F1-015 Env (HIV-1)
[40] = molecular target: HIV-1 MGRM-G-004 Env (HIV-1)
[41] = molecular target: HIV-1 MGRM-G-006 Env (HIV-1)
[42] = molecular target: HIV-1 MGRM-G-011 Env (HIV-1)
[43] = molecular target: HIV-1 MGRM-G-014 Env (HIV-1)
[44] = molecular target: HIV-1 MGRM-G-025 Env (HIV-1)
[45] = molecular target: HIV-1 MGRM-G-028 Env (HIV-1)
HIV-1 NL43 Env (HIV-1) = molecular target: HIV-1 NL43 Env (HIV-1)
[46] = molecular target: HIV-1 NL43 Env on pseudovirus (HIV-1)
[47] = molecular target: HIV-1 THR0.18 (Acute) Env on pseudovirus (HIV-1)
[48] = molecular target: HIV-1 TRJ0.58 (Acute) Env on pseudovirus (HIV-1)
[49] = molecular target: aMLV envelope (negative control pseudovirus)

Substance: b12 (antibody)
- IC50 [1]: 1.93 µg/mL
- IC50 [2]: > 50 µg/mL
- neutralization IC50 [3]: > 50 µg/mL
- neutralization IC90 [3]: > 50 µg/mL
- IC50 (µg/ml), pseudovirus neutralization [4]: 1.01 µg/mL
- IC50 (µg/ml), pseudovirus neutralization [5]: > 50 µg/mL
- neutralization IC50 [5]: > 50 µg/mL
- neutralization IC90 [5]: > 50 µg/mL
- IC50 (µg/ml), pseudovirus neutralization [6]: 0.07 µg/mL
- IC50 [7]: 4.17 µg/mL
- neutralization IC50 (HIV-1 APV-13 Env (HIV-1)): > 25 µg/mL
- neutralization IC90 (HIV-1 APV-13 Env (HIV-1)): > 50 µg/mL
- neutralization IC50 (HIV-1 APV-6 Env (HIV-1)): > 25 µg/mL
- neutralization IC90 (HIV-1 APV-6 Env (HIV-1)): > 50 µg/mL
- neutralization IC50 [8]: 5 µg/mL
- IC50 [9]: 0.02 µg/mL
- IC50 (µg/ml), pseudovirus neutralization [10]: 17.1 µg/mL
- IC50 (µg/ml), pseudovirus neutralization [11]: > 50 µg/mL
- IC50 (µg/ml), pseudovirus neutralization [12]: 11.9 µg/mL
- IC50 (µg/ml), pseudovirus neutralization [13]: > 50 µg/mL
- IC50 (µg/ml), pseudovirus neutralization [14]: > 50 µg/mL
- IC50 (µg/ml), pseudovirus neutralization [15]: > 50 µg/mL
- IC50 [16]: > 50 µg/mL
- IC50 [17]: 2.66 µg/mL
- IC50 [18]: > 50 µg/mL
- IC50 [19]: 1.51 µg/mL
- IC50 [20]: > 50 µg/mL
- IC50 [21]: > 50 µg/mL
- IC50 [22]: 13.3 µg/mL
- IC50 [23]: > 50 µg/mL
- IC50 [24]: > 50 µg/mL
- IC50 [25]: > 50 µg/mL
- IC50 [26]: 13.9 µg/mL
- IC50 (µg/ml), pseudovirus neutralization [27]: > 50 µg/mL
- IC50 (µg/ml), pseudovirus neutralization [28]: > 50 µg/mL
- IC50 (µg/ml), pseudovirus neutralization [29]: > 50 µg/mL
- IC50 (µg/ml), pseudovirus neutralization [30]: 7.75 µg/mL
- IC50 (µg/ml), pseudovirus neutralization [31]: > 50 µg/mL
- IC50 (µg/ml), pseudovirus neutralization [32]: > 50 µg/mL
- IC50 (µg/ml), pseudovirus neutralization [33]: 5.23 µg/mL
- IC50 (µg/ml), pseudovirus neutralization [34]: 17.6 µg/mL
- IC50 (µg/ml), pseudovirus neutralization [35]: 0.78 µg/mL
- IC50 (pseudovirus neutralization) [36]: > 50 µg/mL
- IC50 (pseudovirus neutralization) [37]: > 50 µg/mL
- IC50 (pseudovirus neutralization) [38]: > 50 µg/mL
- IC50 (pseudovirus neutralization) [39]: > 50 µg/mL
- IC50 (µg/ml), pseudovirus neutralization [40]: > 50 µg/mL
- IC50 (µg/ml), pseudovirus neutralization [41]: > 50 µg/mL
- IC50 (µg/ml), pseudovirus neutralization [42]: > 50 µg/mL
- IC50 (µg/ml), pseudovirus neutralization [43]: > 50 µg/mL
- IC50 (µg/ml), pseudovirus neutralization [44]: > 50 µg/mL
- IC50 (µg/ml), pseudovirus neutralization [45]: > 50 µg/mL
- neutralization IC50 (HIV-1 NL43 Env (HIV-1)): 0.06 µg/mL
- neutralization IC90 (HIV-1 NL43 Env (HIV-1)): 0.28 µg/mL
- IC50 [46]: 0.17 µg/mL
- IC50 [47]: 3.62 µg/mL
- IC50 [48]: > 50 µg/mL
- IC50 (pseudovirus neutralization) [49]: > 50 µg/mL

Reference: patent publication US20160264649A1
